Earlier results on two molecules are cited in paper PMC10530560 (Cell chemical biology, 2023).

Data set [1] has as its system CXCL12.
Data set [2] has as its system CCL5.
For data set [3], the system named is CCL5. The following applies: CCL5, immobilized rPSGL-1 with SLe^x modification.
The subject of data set [4] is CXCL12. The following applies: CXCL12, chemotaxis assays using murine T-cells from WT and PSGL-1 null mice.
A further data set has as its system VISTA. The following applies: pH-dependent; dependent on tyrosine sulfation, not on SLe^x on Thr57.

Regarding heparan sulfate, the heparan sulfate binding result with CXCL12 [1] is “found to bind”; with CCL5 [2] it was “found to bind”; with CCL3, “did not bind”; in the data set with CXCL8, “did not bind”.

B1: PSGL-1: P-selectin glycoprotein ligand-1 as tested in previous literature studies (protein, UniProt Q14242 42-412, looked up)
P-selectin glycoprotein …: QATEYEYLDYDFLPETEPPEMLRNSTDTTPLTGPGTPESTTVEPAARRSTGLDAGGAVTELTTELANMGNLSTDSAAMEIQTTQPAATEAQTTQPVPTEAQTTPLAATEAQTTRLTATEAQTTPLAATEAQTTPPAATEAQTTQPTGLEAQTTAPAAMEAQTTAPAAMEAQTTPPAAMEAQTTQTTAMEAQTTAPEATEAQTTQPTATEAQTTPLAAMEALSTEPSATEALSMEPTTKRGLFIPFSVSSVTHKGIPMAASNLSVNYPVGAPDHISVKQCLLAILILALVATIFFVCTVVLAVRLSRKGHMYPVRNYSPTEMVCISSLLPDGGEGPSATANGGLSKAKSPGLTPEPREDREGDDLTLHSFLP
On to B1, for which the “binding to PSGL-1” value is on record as “reported to bind PSGL-1” in the data set on CCL19; “reported to bind PSGL-1” in the data set with CCL21; “reported to bind PSGL-1” in the data set on CCL27; “did not bind” with CCL5 [3]; “did not bind” in the data set with CXCL12 [4]. Moreover, the “binding of VISTA” value with VISTA is “novel pH-dependent ligand”.
